Test results taken from patent US20210130436A1 (published 2021).
Changes are numbered by the printed parent chain. Names may count otherwise.

T1: TIGIT (Homo sapiens (Human), UniProt Q495A1 22-244)
T1 sequence: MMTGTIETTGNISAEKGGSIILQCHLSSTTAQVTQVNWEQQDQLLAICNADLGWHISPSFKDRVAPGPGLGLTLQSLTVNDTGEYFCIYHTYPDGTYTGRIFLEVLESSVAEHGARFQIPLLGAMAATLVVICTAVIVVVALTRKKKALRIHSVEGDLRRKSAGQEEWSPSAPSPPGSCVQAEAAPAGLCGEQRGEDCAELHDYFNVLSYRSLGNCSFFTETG

T2: CD96 (UniProt P40200 22-585, limits assumed)
T2 construct: whole, on cells
T2 sequence (looked up): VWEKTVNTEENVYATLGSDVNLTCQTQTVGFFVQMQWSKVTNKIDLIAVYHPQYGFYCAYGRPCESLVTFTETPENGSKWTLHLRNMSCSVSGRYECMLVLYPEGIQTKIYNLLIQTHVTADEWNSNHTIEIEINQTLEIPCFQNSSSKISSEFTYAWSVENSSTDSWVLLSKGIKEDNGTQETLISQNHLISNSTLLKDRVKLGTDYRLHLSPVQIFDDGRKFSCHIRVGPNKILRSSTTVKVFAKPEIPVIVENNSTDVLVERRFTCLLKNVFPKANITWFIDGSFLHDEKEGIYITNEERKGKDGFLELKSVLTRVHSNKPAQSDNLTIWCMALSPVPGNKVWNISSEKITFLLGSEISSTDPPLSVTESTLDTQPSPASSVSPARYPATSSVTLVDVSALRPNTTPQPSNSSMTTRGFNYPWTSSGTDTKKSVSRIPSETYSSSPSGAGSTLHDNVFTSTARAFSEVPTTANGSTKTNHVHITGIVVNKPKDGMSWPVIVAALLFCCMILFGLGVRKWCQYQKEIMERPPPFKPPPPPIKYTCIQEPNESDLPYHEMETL

T3: CD226 (Homo sapiens (Human), UniProt Q15762 19-336)
T3 sequence: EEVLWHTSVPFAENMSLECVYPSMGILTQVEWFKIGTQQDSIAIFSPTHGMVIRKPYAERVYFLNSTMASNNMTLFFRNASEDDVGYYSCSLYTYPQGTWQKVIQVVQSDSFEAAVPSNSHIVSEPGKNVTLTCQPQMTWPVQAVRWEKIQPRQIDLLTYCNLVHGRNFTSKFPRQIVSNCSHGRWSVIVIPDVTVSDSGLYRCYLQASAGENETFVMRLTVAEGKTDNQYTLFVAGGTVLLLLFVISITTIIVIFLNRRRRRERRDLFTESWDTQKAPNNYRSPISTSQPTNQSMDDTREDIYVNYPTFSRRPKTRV

B1: variant CD80 IgV-Fc E35D/M43I/M47L/L85M (Fc fusion, not shown: a dimerising Fc or GST)
chain: VIHVTKEVKEVATLSCGHNVSVEELAQTRIYWQKDKKMVLTMISGDLNIWPEYKNRTIFDITNNLSIVILALRPSDEGTYECVVMKYEKDAFKREHLAEVTLSVKAD
B2: variant CD80 IgV-Fc E35D/M47L/A71G (Fc fusion, not shown: a dimerising Fc or GST)
chain: B1 chain with I43M, A71G, M85L
B3: variant CD80 IgV-Fc E35D/M47V/I61V/L85M (Fc fusion, not shown: a dimerising Fc or GST)
chain: B1 chain with I43M, L47V, I61V
B4: variant CD80 IgV-Fc E35D/M47V/L85M/R94Q (Fc fusion, not shown: a dimerising Fc or GST)
chain: B1 chain with I43M, L47V, R94Q
B5: variant CD80 IgV-Fc E35D/M47V/T62S/L85Q (Fc fusion, not shown: a dimerising Fc or GST)
chain: B1 chain with I43M, L47V, T62S, M85Q
B6: CD80 E35D/M47V/V68M IgV-Fc (Fc fusion, not shown: small tags and cut ends; a dimerising Fc or GST)
chain: B1 chain with I43M, L47V, V68M, M85L
B7: CD80 M47V/N48K/V68M/K89N IgV-Fc (Fc fusion, not shown: small tags and cut ends; a dimerising Fc or GST)
chain: B1 chain with D35E, I43M, L47V, N48K, V68M, M85L, K89N
B8: variant CD80 IgV-Fc E24D/Q33L/E35D/M47V/K54R/L85Q (Fc fusion, not shown: a dimerising Fc or GST)
chain: B1 chain with E24D, Q33L, I43M, L47V, K54R, M85Q
B9: variant CD80 IgV-Fc Q33K/E35D/D46V/L85Q (Fc fusion, not shown: a dimerising Fc or GST)
chain: B1 chain with Q33K, I43M, D46V, L47M, M85Q
B10: variant CD80 IgV-Fc Q33L/E35D/M47I (Fc fusion, not shown: a dimerising Fc or GST)
chain: B1 chain with Q33L, I43M, L47I, M85L
B11: variant CD80 IgV-Fc Q33L/E35D/M47V (Fc fusion, not shown: a dimerising Fc or GST)
chain: B1 chain with Q33L, I43M, L47V, M85L
B12: variant CD80 IgV-Fc Q33L/E35D/M47V/T79A (Fc fusion, not shown: a dimerising Fc or GST)
chain: B1 chain with Q33L, I43M, L47V, T79A, M85L
B13: variant CD155 IgV-Fc T45Q/S52L/V57L/L104E (Fc fusion, not shown: a dimerising Fc or GST)
chain: WPPPGTGDVVVQAPTQVPGFLGDSVTLPCYLQVPNMEVTHVSQLQWARHGELGSMALFHQTQGPSYSESKRLEFVAARLGAELRNASLRMFGLRVEDEGNYTCEFVTFPQGSRSVDIWLRVL
B14: variant CD80 IgV-Fc E35D/L97R (Fc fusion, not shown: a dimerising Fc or GST)
chain: B1 chain with I43M, L47M, M85L, L97R
B15: variant CD80 IgV-Fc E35D/M47V/N48K/L85M (Fc fusion, not shown: a dimerising Fc or GST)
chain: B1 chain with I43M, L47V, N48K
B16: variant CD80 IgV-Fc E35D/N48K/L72V (Fc fusion, not shown: a dimerising Fc or GST)
chain: B1 chain with I43M, L47M, N48K, L72V, M85L
B17: variant CD80 IgV-Fc H18Y/E35D/M47V/N48K (Fc fusion, not shown: a dimerising Fc or GST)
chain: B1 chain with H18Y, I43M, L47V, N48K, M85L
B18: variant CD80 IgV-Fc A26E/E35D/M43I/M47L/L85Q/K86E/R94W (Fc fusion, not shown: a dimerising Fc or GST)
chain: B1 chain with A26E, M85Q, K86E, R94W
B19: variant CD80 IgV-Fc Q33R/E35D/D46E/M47I (Fc fusion, not shown: a dimerising Fc or GST)
chain: B1 chain with Q33R, I43M, D46E, L47I, M85L
B20: variant CD80 IgV-Fc (inert) H18R/A26P/E35D/D46N/M47V/V68M/A71G/D90P (Fc fusion)
chain: B1 chain with H18R, A26P, I43M, D46N, L47V, V68M, A71G, M85L, D90P
notes: not shown: inert human IgG1 Fc
B21: variant CD80 IgV-Fc (inert) H18V/A26N/E35D/M47V/V68M/A71G (Fc fusion)
chain: B1 chain with H18V, A26N, I43M, L47V, V68M, A71G, M85L
notes: as for B20
B22: variant CD80 IgV-Fc (inert) H18V/A26P/E35D/M47V/V68L/A71G (Fc fusion)
chain: B1 chain with H18V, A26P, I43M, L47V, V68L, A71G, M85L
notes: as for B20
B23: CD80 IgV-Fc T13R/E35D/M47L/V68M (Fc fusion, not shown: a dimerising Fc or GST)
chain: B1 chain with T13R, I43M, V68M, M85L
B24: CD80 IgV-Fc V22D/E24D/E35D/M47L/V68M (Fc fusion, not shown: a dimerising Fc or GST)
chain: B1 chain with V22D, E24D, I43M, V68M, M85L
B25: WT CD80 ECD-Fc (Fc fusion, not shown: a dimerising Fc or GST)
chain: VIHVTKEVKEVATLSCGHNVSVEELAQTRIYWQKEKKMVLTMMSGDMNIWPEYKNRTIFDITNNLSIVILALRPSDEGTYECVVLKYEKDAFKREHLAEVTLSVKADFPTPSISDFEIPTSNIRRIICSTSGGFPEPHLSWLENGEELNAINTTVSQDPETELYAVSSKLDFNMTTNHSFMCLIKYGHLRVNQTFNWNTTKQEHFPDN
notes: Wild-type control
B26: CD80 IgV-Fc V22D/E24D/E35D/M47L/V68M/L85M/D90G (Fc fusion, not shown: a dimerising Fc or GST)
chain: B1 chain with V22D, E24D, I43M, V68M, D90G

The binders below were run against T4, human CTLA4 on CHO cells (human, UniProt P16410 36-223) (assay: flow cytometry, CHO cells stably expressing CTLA4).
T4 construct: whole, on cells; CHO cells stably expressing CTLA4; also called huCTLA4
T4 sequence (P16410 36-223): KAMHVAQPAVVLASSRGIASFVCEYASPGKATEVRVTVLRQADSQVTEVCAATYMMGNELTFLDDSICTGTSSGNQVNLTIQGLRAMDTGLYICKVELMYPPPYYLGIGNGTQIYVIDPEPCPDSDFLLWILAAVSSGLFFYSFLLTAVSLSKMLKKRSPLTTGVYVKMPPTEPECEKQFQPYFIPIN

Binder	MFI at 33.3 nM
B1	24600 MFI
B2	20600 MFI
B3	28800 MFI
B4	23300 MFI
B5	31200 MFI

Each binder was assayed against T5, human PD-L1 expressed on CHO cells (human, UniProt Q9NZQ7 19-290) (assay: flow cytometry, CHO cells stably expressing PD-L1, Fc fusion at 33.3 nM).
T5 construct: whole, on cells; Target on CHO cells stably expressing PD-L1; also called huPD-L1
T5 sequence (Q9NZQ7 19-290): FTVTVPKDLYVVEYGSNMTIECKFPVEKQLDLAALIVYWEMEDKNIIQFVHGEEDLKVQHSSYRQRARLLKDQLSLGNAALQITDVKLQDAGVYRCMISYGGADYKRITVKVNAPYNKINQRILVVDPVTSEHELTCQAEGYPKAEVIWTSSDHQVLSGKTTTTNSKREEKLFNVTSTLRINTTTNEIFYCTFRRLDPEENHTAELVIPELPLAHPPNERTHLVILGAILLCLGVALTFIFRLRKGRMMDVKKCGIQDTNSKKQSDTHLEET

Binder	MFI at 33.3 nM
B6	16600 MFI
B7	23700 MFI

Each binder was assayed against T6, human PD-L1 (full-length, expressed on CHO cells) (human, UniProt Q9NZQ7 19-290) (assay: flow cytometry, CHO cells expressing huPD-L1, PE anti-human Fc).
T6 construct: also called huPD-L1; CD274
T6 sequence (Q9NZQ7 19-290): as above

Binder	MFI at 33.3 nM
B8	67100 MFI
B9	26700 MFI
B10	37400 MFI
B11	47900 MFI
B12	62100 MFI

What follows are binders tested against T6, human PD-L1 (full-length, expressed on …) (assay: flow cytometry MFI at 33.3 nM relative to WT CD80 ECD-Fc (R&D), CHO/huPD-L1 cells).

Binder	Fold change to WT
B9	3.36 fold
B10	4.7 fold

What follows are binders tested against T1, TIGIT (assay: flow cytometry, Fc fusion at 100 nM, TIGIT-transfected cells).

Binder	MFI at 100 nM
B13	2860 MFI

What follows are binders tested against T7, human PD-L1 on CHO cells (human, UniProt Q9NZQ7 19-290) (assay: flow cytometry, CHO cells stably expressing PD-L1).
T7 construct: whole, on cells; CHO cells stably expressing PD-L1; also called huPD-L1
T7 sequence (Q9NZQ7 19-290): as above

Binder	MFI at 33.3 nM
B14	2610 MFI
B1	4880 MFI
B2	6640 MFI
B3	3050 MFI
B15	5660 MFI
B16	3030 MFI
B17	6460 MFI

The binders below were run against T2, CD96 (assay: flow cytometry, Fc fusion at 100 nM, CD96-transfected cells).

Binder	MFI at 100 nM
B13	1530 MFI

Each binder was assayed against T8, human CTLA4 (full-length, expressed on CHO cells) (human, UniProt P16410 36-223) (assay: flow cytometry, CHO cells expressing huCTLA4, PE anti-human Fc).
T8 construct: also called huCTLA4
T8 sequence (P16410 36-223): as the sequence (P16410 36-223) above

Binder	MFI at 33.3 nM
B18	2950 MFI
B8	311000 MFI
B11	47600 MFI
B12	28900 MFI
B19	3560 MFI

The binders below were run against T6, human PD-L1 (full-length, expressed on …) (assay: flow cytometry, MFI on CHO/huPD-L1 cells over MFI on Jurkat (CD28) cells, 33.3 nM).

Binder	Ratio of PDL1:CD28
B9	104 ratio
B10	132 ratio

What follows are binders tested against T3, CD226 (assay: flow cytometry, Fc fusion at 100 nM, CD226-transfected cells).

Binder	MFI at 100 nM
B13	5940 MFI

These binders were tested against T9, human CTLA-4 (human, UniProt P16410 36-223) (assay: flow cytometry, CHO cells stably expressing huCTLA-4, 33.3 nM Fc fusion, PE anti-human Fc).
T9 construct: whole, on cells; CHO cells stably expressing huCTLA4; also called huCTLA4
T9 sequence (P16410 36-223): as above

Binder	MFI at 33.3 nM
B20	17300 MFI
B21	22400 MFI
B22	13700 MFI

These binders were tested against T10, human PD-L1 (human, UniProt Q9NZQ7 19-290) (assay: flow cytometry, CHO cells stably expressing huPD-L1, 33.3 nM Fc fusion, PE anti-human Fc).
T10 construct: whole, on cells; CHO cells stably expressing huPD-L1; also called huPD-L1

Binder	MFI at 33.3 nM
B20	29300 MFI
B21	68200 MFI
B22	55400 MFI

What follows are binders tested against human CD28 (human, UniProt P10747 19-220) (assay: flow cytometry, Jurkat cells (CD28)).

Binder	MFI at 33.3 nM
B23	15.6 MFI
B24	1250 MFI
B25	31 MFI

Each binder was assayed against T11, CD28 (endogenously expressed on Jurkat/IL2 reporter cells) (human, UniProt P10747 19-220) (assay: flow cytometry MFI at 33.3 nM relative to WT CD80 ECD-Fc (R&D), Jurkat cells).
T11 construct: Endogenous CD28 of Jurkat cells; also called human CD28

Binder	Fold change to WT
B9	0.03 fold
B10	0.04 fold

These binders were tested against T12, human PD-L1 (human, UniProt Q9NZQ7 19-290) (assay: flow cytometry, CHO cells stably expressing PD-L1).
T12 construct: also called huPD-L1; CD274

Binder	MFI at 33.3 nM
B23	20000 MFI
B24	15400 MFI
B26	19000 MFI

These binders were tested against T11, CD28 (endogenously expressed on …) (assay: flow cytometry, Jurkat/IL2 reporter cells (endogenous CD28), PE anti-human Fc).

Binder	MFI at 33.3 nM
B18	314 MFI
B9	257 MFI
B10	282 MFI
B19	303 MFI

These binders were tested against T13, CD28 on Jurkat/IL2 reporter cells (human, UniProt P10747 19-220) (assay: flow cytometry, Jurkat cells (CD28)).
T13 construct: whole, on cells; Endogenous CD28 of Jurkat cells; also called Jurkats (CD28)

Binder	MFI at 33.3 nM
B14	44.6 MFI
B3	274 MFI
B4	23.7 MFI
B15	413 MFI
B5	99.4 MFI
B16	582 MFI
B17	841 MFI
